In patent publication US20140056907A1 (Regeneron, published 2014):

What was measured:
human ASIC1 = target: T1, human ASIC1 (human, UniProt P78348 1-528); experiment: cell-based or functional assay
T1 sequence: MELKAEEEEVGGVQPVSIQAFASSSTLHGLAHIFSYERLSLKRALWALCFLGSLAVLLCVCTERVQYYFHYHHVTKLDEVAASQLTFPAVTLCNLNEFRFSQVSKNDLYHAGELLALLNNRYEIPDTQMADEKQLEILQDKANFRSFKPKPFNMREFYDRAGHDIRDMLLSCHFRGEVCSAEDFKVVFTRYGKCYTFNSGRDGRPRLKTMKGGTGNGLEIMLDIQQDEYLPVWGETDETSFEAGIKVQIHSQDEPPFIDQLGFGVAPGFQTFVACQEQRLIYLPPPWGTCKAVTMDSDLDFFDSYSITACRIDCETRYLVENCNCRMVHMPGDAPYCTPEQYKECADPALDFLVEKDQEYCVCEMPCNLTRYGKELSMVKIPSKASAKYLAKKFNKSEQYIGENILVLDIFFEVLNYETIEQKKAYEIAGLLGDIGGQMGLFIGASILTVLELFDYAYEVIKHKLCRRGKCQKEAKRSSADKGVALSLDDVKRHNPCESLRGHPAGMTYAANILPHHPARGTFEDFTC

mouse ASIC3 = target: T2, mouse ASIC3 (mouse, UniProt Q6X1Y6 1-530); experiment: FACS, 3T3/mASIC3 cells
T2 construct: whole, on cells; Expressed on stably transfected 3T3 cells (3T3/mASIC3); also called mASIC3
T2 sequence (looked up): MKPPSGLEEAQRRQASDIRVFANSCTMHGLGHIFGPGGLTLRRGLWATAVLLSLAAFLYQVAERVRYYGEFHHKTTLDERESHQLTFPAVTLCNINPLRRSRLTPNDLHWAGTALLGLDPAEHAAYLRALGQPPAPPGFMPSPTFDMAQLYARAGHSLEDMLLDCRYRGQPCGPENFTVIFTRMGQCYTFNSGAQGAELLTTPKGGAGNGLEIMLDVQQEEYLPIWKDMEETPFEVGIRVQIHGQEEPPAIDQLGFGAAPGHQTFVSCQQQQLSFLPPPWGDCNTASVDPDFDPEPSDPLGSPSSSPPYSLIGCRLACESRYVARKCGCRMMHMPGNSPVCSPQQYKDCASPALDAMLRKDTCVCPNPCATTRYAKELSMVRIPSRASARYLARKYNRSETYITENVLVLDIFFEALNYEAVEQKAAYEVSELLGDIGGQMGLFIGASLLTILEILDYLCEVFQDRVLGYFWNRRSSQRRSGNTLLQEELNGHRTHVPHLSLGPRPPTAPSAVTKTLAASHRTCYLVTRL
Source text: (§1) For these experiments, four cell lines were constructed: (a) a mouse fibroblast 3T3 cell line stably transfected to overexpress full length human ASIC3 (3T3/hASIC3; amino acids 1-531 of NCBI accession number NP_{—}004760.1), (b) a 3T3 cell line stably transfected to co-express full length human ASIC1a and human ASIC3 (3T3/hASIC1/3; amino acids 1-528 of NCBI accession number NP_{—}001086.2 and amino acids 1-531 of NCBI accession number NP_{—}004760.1), (c) […] a stably transfected 3T3 cell line expressing the full-length mouse ASIC3 channel (3T3/mASIC3; amino acids 1-530 of NCBI accession number NP_{—}892045.2), and (d) a 3T3 cell line stably transfected to co-express full length mouse ASIC1a and mouse ASIC3 (3T3/mASIC1/3; amino acids 1-526 of NCBI accession number NP_{—}033727 and amino acids 1-530 of NCBI accession number NP_{—}892045.2). Antibody binding was determined using flow cytometry (FACS).
To perform the FACS binding experiments, adherent cells were collected with cold Millipore Accutase 3-5 minutes, spun and resuspended in ice-cold FACS buffer (PBS, 2% HI-FBS and 0.09% Na-azide). […] After incubating for 20 minutes on ice, the cells were washed and resuspended in FACS buffer, then sorted and analyzed on a flow cytometer (FACSCanto II, BD Biosciences, San Jose, Calif.) to determine relative binding by the candidate antibodies to the tested cell lines. […]

[1] = target: T3, mouse ASIC1/ASIC3 channels (co-expressed mouse ASIC1a and mouse ASIC3) (mouse, UniProt Q6NXK8 1-526; Q6X1Y6 1-530); experiment: FACS, 3T3/mASIC1/3 cells, 10 nM antibody
T3 construct: whole, on cells; 3T3 cells co-expressing both subunits; also called 3T3/mASIC1/3
T3 sequence (looked up) 1: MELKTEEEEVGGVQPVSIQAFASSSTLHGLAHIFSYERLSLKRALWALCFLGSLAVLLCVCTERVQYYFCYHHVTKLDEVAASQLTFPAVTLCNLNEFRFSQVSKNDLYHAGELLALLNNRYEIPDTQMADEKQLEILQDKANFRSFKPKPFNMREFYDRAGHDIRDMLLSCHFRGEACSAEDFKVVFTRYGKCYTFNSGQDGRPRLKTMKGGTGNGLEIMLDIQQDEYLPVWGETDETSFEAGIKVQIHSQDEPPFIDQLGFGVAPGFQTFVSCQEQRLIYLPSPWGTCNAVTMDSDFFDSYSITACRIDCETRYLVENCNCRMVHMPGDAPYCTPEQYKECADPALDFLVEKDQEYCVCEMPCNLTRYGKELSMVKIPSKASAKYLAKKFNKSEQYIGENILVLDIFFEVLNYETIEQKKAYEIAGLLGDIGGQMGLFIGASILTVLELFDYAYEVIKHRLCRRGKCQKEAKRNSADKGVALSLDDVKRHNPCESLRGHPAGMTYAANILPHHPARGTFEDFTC
T3 sequence (looked up) 2: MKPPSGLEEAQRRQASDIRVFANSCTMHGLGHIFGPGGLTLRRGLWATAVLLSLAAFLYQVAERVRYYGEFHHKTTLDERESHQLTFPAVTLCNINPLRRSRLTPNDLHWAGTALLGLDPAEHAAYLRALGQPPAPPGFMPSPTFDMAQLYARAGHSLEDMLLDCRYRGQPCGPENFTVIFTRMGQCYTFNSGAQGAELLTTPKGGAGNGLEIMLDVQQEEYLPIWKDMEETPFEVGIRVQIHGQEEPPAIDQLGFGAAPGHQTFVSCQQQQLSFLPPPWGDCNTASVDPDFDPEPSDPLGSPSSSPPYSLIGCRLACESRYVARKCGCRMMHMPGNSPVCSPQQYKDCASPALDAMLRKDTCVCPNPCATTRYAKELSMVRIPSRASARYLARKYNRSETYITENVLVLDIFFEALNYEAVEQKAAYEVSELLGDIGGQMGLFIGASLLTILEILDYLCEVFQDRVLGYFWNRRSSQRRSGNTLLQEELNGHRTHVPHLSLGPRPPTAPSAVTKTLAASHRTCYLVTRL
Method: Antibody binding was determined using flow cytometry (FACS).
(§2) To perform the FACS binding experiments, adherent cells were collected with cold Millipore Accutase 3-5 minutes, spun and resuspended in ice-cold FACS buffer (PBS, 2% HI-FBS and 0.09% Na-azide). Anti-ASIC1 antibody at final concentrations of 10 nM was added for 20-30 minutes on ice. Cells were washed with 900 μL ice-cold FACS buffer, spun, and resuspended in 100 μL ice-cold FACS buffer. A secondary antibody which recognizes human Fc (Jackson Immuno Research, #109-136-098) and is conjugated to allophycocyanin, was then added to the cell mixture at a final concentration of 2.5 ug/mL. After incubating for 20 minutes on ice, the cells were washed and resuspended in FACS buffer, then sorted and analyzed on a flow cytometer (FACSCanto II, BD Biosciences, San Jose, Calif.) to determine relative binding by the candidate antibodies to the tested cell lines. Histograms of cells stained with anti-ASIC1 antibodies were compared with those of cells stained with secondary antibody alone. Percentage of ASIC1 signal over secondary antibody alone was calculated using FlowJo software (Tree Star, Ashland, Oreg.).

human ASIC3 = target: T4, human ASIC3 (human, UniProt Q9UHC3 1-531); experiment: FACS, 3T3/hASIC3 cells
T4 construct: whole, on cells; Expressed on 3T3 cells (3T3/hASIC3) or HEK293 cells (HEK/hASIC3-QCells); also called hASIC3
T4 sequence (looked up): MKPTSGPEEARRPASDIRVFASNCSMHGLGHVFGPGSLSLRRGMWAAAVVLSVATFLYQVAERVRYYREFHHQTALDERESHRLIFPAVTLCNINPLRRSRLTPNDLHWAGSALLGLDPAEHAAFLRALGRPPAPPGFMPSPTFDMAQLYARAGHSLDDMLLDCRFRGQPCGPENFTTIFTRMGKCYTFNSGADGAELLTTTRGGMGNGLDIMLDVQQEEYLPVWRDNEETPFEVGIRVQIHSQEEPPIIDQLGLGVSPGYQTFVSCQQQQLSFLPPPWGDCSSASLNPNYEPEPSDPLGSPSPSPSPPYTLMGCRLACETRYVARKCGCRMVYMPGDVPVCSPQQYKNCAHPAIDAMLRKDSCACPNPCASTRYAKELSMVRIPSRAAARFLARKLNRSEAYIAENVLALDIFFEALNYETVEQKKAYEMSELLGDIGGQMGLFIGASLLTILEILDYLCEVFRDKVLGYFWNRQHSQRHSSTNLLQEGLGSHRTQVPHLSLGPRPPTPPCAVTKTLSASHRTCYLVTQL
Source text: as §1, §2

B1: H4H6718N (antibody, human IgG4, V domains shown)
VH: EVQLLESGGGLVQPGGSLRLSCAASGFTFSSFAMSWVRQAPGKGLEWVSGISGSGGGTHYADSVKGRFTISRDNSKNMVYLQMNSLRAEDTAAYYCAKEAYKWQPWGQGTLVTVSS
VL: DIQMTQSPSTLSASVGDRVIITCRASQRISSWLAWYQQKPGKAPNLLIYKASILESGVPSRFSGSGSGTEFTLTISSLQPDDFATYYCQQYNSYSYTFGQGTKLEIK
apparent IC50, human ASIC1 current, Q-Patch (human ASIC1): < 1 nM | binding result (mouse ASIC3): no binding (tested: 10 nM) | binding result [1]: binds | binding result (human ASIC3): no binding (tested: 10 nM; gated lower than 1%)
